This note sets out measurements from the supplement of paper PMC7877785.

± gives the uncertainty stated by the source.

A short description of the data set: self-splicing fitness, log relative to wild type (ln ratio); higher = more splicing; Tetrahymena group I intron in knt gene, E. coli kanamycin selection, DiMSum; sequences stand for … in CUCUCU…GGAGGGAAAAGUUAUCAGGCAUGCACCUGGUAGCUAGUCUUUAAACCAAUAGAUUGCAUCGGUUUAAAAGGCAAGACCGUCAAAUUGCGGGAAAGGGGUCAACAGCCGUUCAGUACCAAGUCUCAGGGGAAACUUUGAGAUGGCCUUGCAAAGGGUAUGGUAAUAAGCUGACGGACAUGGUCCUAACCACGCAGCCAAGUCCUAAGUCAACAGAUCUUCUGUUGAUAUGGAUGCAGUUCACAGACUAAAUGUCGGUCGGGGAAGAUGUAUUCUUCUCAUAAGAUAUAGUCGGACCUCUCCUUAAUGGGAGCUAGCGGAUGAAGUGAUGCAACACUGGAGCCGCUGGGAACUAAUUUGUAUGCGAAAGUAUAUUGAUUAGUUUUGGAGUACUCGUGGUCG
An outline of the steps:
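Six replicate transformations of E. coli BL21(DE3) with a pET-22b(+) library were grown overnight at 37°C or 30°C. The library randomised all eight P1ex-region intron nucleotides, the intron lying in the knt kanamycin-resistance gene, and plates were LB agar with or without 25 μg/mL kanamycin plus 100 μg/mL carbenicillin, 50 μM IPTG and 0.2% rhamnose. Pooled colonies were amplicon-sequenced on an Illumina HiSeq 2500, and fitness is the DiMSum error-weighted combination of wild-type-normalised replicate fold changes, kanamycin versus none.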

Regarding UAUCAGCAAUAUUACGCUCC, the “self-splicing fitness (ln)” value is, setting by setting: (30 °C) -1 ± 0.29; (37 °C) -0.504 ± 0.31.
With UAUCAGCAAUAUUACGCUUU, the “self-splicing fitness (ln)” value (30 °C) was -1.48 ± 0.086 and the “self-splicing fitness (ln)” value (37 °C) was -0.159 ± 0.098.
With UAUCAGCAAUAUUACGGAAA, the “self-splicing fitness (ln)” value was -0.825 ± 0.11 (30 °C) and -0.253 ± 0.12 (37 °C).
Regarding UAUCAGCAAUAUUACGGCAC, the “self-splicing fitness (ln)” value (30 °C) was -2.52 ± 0.17 and the “self-splicing fitness (ln)” value (37 °C) is -0.753 ± 0.14.
On the same counts, the results for UAUCAGCAAUAUUACGGUAU are -3.73 ± 0.21 and -2.01 ± 0.18.
With UAUCAGCAAUAUUACGUAGA, the “self-splicing fitness (ln)” value by setting is: (30 °C) -0.562 ± 0.058; (37 °C) -0.0988 ± 0.081.
On the same counts, the results for UAUCAGCAAUAUUACGUUAA are -0.97 ± 0.093 and -0.0683 ± 0.11.
UAUCAGCAAUAUUACGUUAG: the “self-splicing fitness (ln)” value is -1.22 ± 0.095 (30 °C) and -1.03 ± 0.094 (37 °C).
On the same counts, the results for UAUGAGCAAUAUUACGACCG are -1.61 ± 0.4 and -1.53 ± 0.34.
On to UAUGAGCAAUAUUACGAGUG, for which the “self-splicing fitness (ln)” value was -1.52 ± 0.095 (30 °C) and -0.43 ± 0.11 (37 °C).
On to UAUGAGCAAUAUUACGCAGA, for which the “self-splicing fitness (ln)” value (30 °C) is -3.3 ± 0.29 and the “self-splicing fitness (ln)” value (37 °C) is -2.6 ± 0.23.
In the case of UAUGAGCAAUAUUACGCCUG, the “self-splicing fitness (ln)” value was -1.44 ± 0.14 (30 °C) and -1.57 ± 0.26 (37 °C).
With UAUGAGCAAUAUUACGCUAC, the “self-splicing fitness (ln)” value is -2.79 ± 0.2 (30 °C) and -2.25 ± 0.43 (37 °C).
On the same counts, the results for UAUGAGCAAUAUUACGCUAU are -1.38 ± 0.31 and -1.3 ± 0.23.
For UAUGAGCAAUAUUACGCUGA, in that order: -2.75 ± 0.33 and -1.13 ± 0.3.
With UAUGAGCAAUAUUACGCUUG, the “self-splicing fitness (ln)” value (30 °C) is -3.32 ± 0.4 and the “self-splicing fitness (ln)” value (37 °C) worked out at 0.0607 ± 0.25.
As for UAUGAGCAAUAUUACGGAAU, the “self-splicing fitness (ln)” value was -3.65 ± 0.47 (30 °C) and -2.44 ± 0.38 (37 °C).
Consider UAUGAGCAAUAUUACGGUGU, for which the “self-splicing fitness (ln)” value by setting is: (30 °C) -3.54 ± 0.23; (37 °C) -2.63 ± 0.2.
For UAUGAGCAAUAUUACGUAAA, the “self-splicing fitness (ln)” value was -3.46 ± 0.32 (30 °C) and -1.59 ± 0.19 (37 °C).
Regarding UAUGAGCAAUAUUACGUAAC, under “30 °C”, the “self-splicing fitness (ln)” value is -2.86 ± 0.36.
On to UAUGAGCAAUAUUACGUAGA, for which the “self-splicing fitness (ln)” value was -2.7 ± 0.18 (30 °C) and -2.46 ± 0.2 (37 °C).
As to UAUGAGCAAUAUUACGUAUU, the “self-splicing fitness (ln)” value (37 °C) was -3.61 ± 0.35.
Take UAUGAGCAAUAUUACGUGAA: the “self-splicing fitness (ln)” value (30 °C) is -2.98 ± 0.33 and the “self-splicing fitness (ln)” value (37 °C) was -1.35 ± 0.17.
With UAUGAGCAAUAUUACGUUAG, the “self-splicing fitness (ln)” value is -2.63 ± 0.17 (30 °C) and -2.23 ± 0.22 (37 °C).
In the case of UAUGAGCAAUAUUACGUUAU, the “self-splicing fitness (ln)” value runs as follows: (30 °C) -3.87 ± 0.33; (37 °C) -2.46 ± 0.19.
For the sequence UAUUAGCAAUAUUACGAAGA, the “self-splicing fitness (ln)” value is -1.81 ± 0.17 (30 °C) and -1.75 ± 0.26 (37 °C).
For the sequence UAUUAGCAAUAUUACGAAGU, the “self-splicing fitness (ln)” value is -2.67 ± 0.42 (30 °C) and -2.12 ± 0.4 (37 °C).
Turning to UAUUAGCAAUAUUACGACCC, the “self-splicing fitness (ln)” value by setting is: (30 °C) -3.2 ± 0.38; (37 °C) -0.71 ± 0.33.
Regarding UAUUAGCAAUAUUACGACGA, the “self-splicing fitness (ln)” value runs as follows: (30 °C) -0.31 ± 0.18; (37 °C) -0.557 ± 0.23.
For UAUUAGCAAUAUUACGAUGG, in that order: -1.24 ± 0.094 and -0.174 ± 0.11.
For the sequence UAUUAGCAAUAUUACGCAAU, the “self-splicing fitness (ln)” value by setting is: (30 °C) -2.79 ± 0.28; (37 °C) -1.77 ± 0.27.
UAUUAGCAAUAUUACGCAGG: the “self-splicing fitness (ln)” value (30 °C) is -1.43 ± 0.14 and the “self-splicing fitness (ln)” value (37 °C) was -0.962 ± 0.14.
On to UAUUAGCAAUAUUACGCCGG, for which the “self-splicing fitness (ln)” value by setting is: (30 °C) -0.99 ± 0.22; (37 °C) -0.907 ± 0.26.
Turning to UAUUAGCAAUAUUACGCGAA, the “self-splicing fitness (ln)” value is -2.22 ± 0.29 (30 °C) and -0.951 ± 0.17 (37 °C).
UAUUAGCAAUAUUACGCGUC: the “self-splicing fitness (ln)” value was -4.05 ± 0.35 (30 °C) and -2.57 ± 0.26 (37 °C).
As to UAUUAGCAAUAUUACGCUAC, the “self-splicing fitness (ln)” value (30 °C) is -2.5 ± 0.41 and the “self-splicing fitness (ln)” value (37 °C) was -1.15 ± 0.47.
On the same counts, the results for UAUUAGCAAUAUUACGCUCU are -1.02 ± 0.17 and -0.332 ± 0.32.
On the same counts, the results for UAUUAGCAAUAUUACGCUUA are -1.05 ± 0.2 and -0.89 ± 0.25.
